Consider 6 molecules from patent US20190262327A1, “COMBINATION OF A BACE INHIBITOR AND AN ANTIBODY OR ANTIGEN-BINDING FRAGMENT FOR THE TREATMENT OF A DISORDER ASSOCIATED WITH THE ACCUMULATION OF AMYLOID BETA” (ASTRAZENECA AB, priority 2016, published 2019).

B1: Abet0332: optimized anti-Aβ1-42 clone derived from Abet0144-GL (protein)
scFv (part 1 of 2): EVQLLESGGGLVQPGESLRLSCAASSDSWHTDIMWWVRQAPGKRLEWVSVIGNSNKKIAYADSVKGRFTISRDNSKNTLYLQMNSLRAEDTAVYYCAREWMDHSRPYYYYGMDVWGQGTLVTVSS
scFv (part 2 of 2): SYELTQPPSVSVSPGQTASITCSGHNIGAKWVSWYQQKPGQSPILVIYRDDKRPSGIPERFSASNSGHTATLTISGTQATDEADYYCQAQGQVTRSFGGGTKLTVL
modifications: left off: small tags and cut ends
notes: optimized anti-Aβ1-42 clone derived from Abet0144-GL
B2: Abet0322b: optimized anti-Aβ1-42 clone derived from Abet0144-GL (protein)
scFv (part 1 of 2): EVQLLESGGGLVQPGGSLRLSCAASNEEFQYNPMWWVRQAPGKGLEWVSVIGSSGGATVYADAVKGRFTISRDNSENTLYLQMNSLRAEDTAVYYCAREWMDHSRPYYYYGMDVWGQGTLVTVSS
scFv (part 2 of 2): SYELTQPPSVSVSPGQTASITCSGHNLGDKFASWYQQKPGQSPVLVIYRDDKRPSEIPERFSASNSGHTATLTISGTQATDEADYYCSSQDTVTRVFGGGTKLTVL
modifications: left off: small tags and cut ends
notes: as for B1
B3: Abet0342: optimized anti-Aβ1-42 clone derived from Abet0144-GL (protein)
scFv (part 1 of 2): EVQLLESGGGLVQPGGSLRLSCAASGFDFRRSVMWWVRQAPGKGLEWVSVIGAQTQNKAYADSVKGRFTISRDNSKNTLYLQMNSLRAEDTAVYYCAREWMDHSRPYYYYGMDVWGQGTLVTVSS
scFv (part 2 of 2): SYELTQPPSVSVSPGQTASITCSGHNLEDKFASWYQQKPGQSPVLVIYRDDKRPSGIPERFSASNSGDTATLTISGTQAMDEADYYCQAQDSTTRVFGGGTKLTVL
modifications: left off: small tags and cut ends
notes: as for B1
B4: Abet0328: optimized anti-Aβ1-42 clone derived from Abet0144-GL (protein)
scFv (part 1 of 2): EVQLLESGGGLVQPGGSLRLSCAASRDPFKADTMWWVRQAPRKRLEWVSVIGAHTTNSAYADSVKGRFTISRDNSKNTLYLQMNSLRAEDTAVYYCAREWMDRSRPYYYYGMDVWGQGTLVTVSS
scFv (part 2 of 2): SYELTQPPSVSVSPGQTVSITCSGRNLEDKFASWYQQKPGQSPVLVIYRDDKRPSGVPERFSASNSGHTATLTISGTQATDEADYYCSSQDTVTRVFGGGTKLTVL
modifications: left off: small tags and cut ends
notes: as for B1
B5: Abet0323b: optimized anti-Aβ1-42 clone derived from Abet0144-GL (protein)
scFv (part 1 of 2): EVQLLESGGGLVQPGGSLRLSCAASTSTFQEDTMWWVRQAPGKGLEWVSVIGPNPKNNAYADSVKGRFTISRDNSKNTLYLQMNSLRAEDTAVYYCAREWMDHSRPYYYYGMDVWGQGTLVTVSS
scFv (part 2 of 2): SYELTQPPSVSVSPGQTASITCSGHNLEDKFASWYQQKPGQSPVLVIYRDDKRPSGVPERFSASNSGHTATLTISGTQATDEADYYCSSQDTVTRVFGGGTKLIVL
modifications: left off: small tags and cut ends
notes: as for B1
B6: Abet0329: optimized anti-Aβ1-42 clone derived from Abet0144-GL (protein)
scFv (part 1 of 2): EVQLLESGGGLVQPGGSLRLSCAASTFNLKRETMWWVRQAPGKGLEWVSVIGSHQERTSYADSVKGRFTISRDNSKNTLYLQMNSLRAEDTAVYYCAREWMDHSRPYYYYGMDVWGQGTLVTVSS
scFv (part 2 of 2): SYELTQPPSVSVSPGQTASITCSGHNVSDKWMTWYQQKPGQSPVLVIYRDDKRPSGIPERFSASNSGHTATLTISGTQATDEADYYCSSQDTVTRVFGGGTKLTVL
modifications: left off: small tags and cut ends
notes: as for B1

The target in this assay is T1, human Amyloid beta 1-42 peptide (Homo sapiens, UniProt P05067).
T1 construct: biotinylated human Amyloid beta 1-42 peptide (rpeptide, USA; cat: A1117); purchased rPeptide, USA A1117; host or cells: synthetic peptide
T1 sequence (P05067 672-713): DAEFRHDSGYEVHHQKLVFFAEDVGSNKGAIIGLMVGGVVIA
Description: Surface Plasmon Resonance kinetic profiling of purified scFv (ProteOn). It counts as binding. As to conditions: biotinylated human Amyloid beta 1-42 on streptavidin chip. The source says: Surface Plasmon Resonance was used to analyse the purified scFv clones that had shown significant improvement in binding affinity for human Amyloid beta 1-42 peptide over the parent sequence, Abet0144-GL, in the HTRF™ epitope competition assay (sections 1.3-1.6). Briefly, the ProteOn Protein Interaction Array System (BioRad, USA) was used to assess the kinetic parameters of the interaction between each purified scFv and synthetically produced human Amyloid beta 1-42 peptide. These experiments were performed essentially as described by Karlsson et al. (Karlsson et al., 1991).
The affinity of binding between each test scFv and human Amyloid beta 1-42 was estimated using assays in which biotinylated synthetic human Amyloid beta 1-42 peptide (rPeptide, USA; cat: Al 117) was non-covalently bound via a biotin/streptavidin interaction to a proprietary streptavidin chip (NTA 176-5021) at five different surface densities. The chip surface was regenerated between cycles by a single 60 second injection of 10 mM Glycine pH 2.0 to remove scFv bound to the peptide.
Each scFv at 100-200 nM was sequentially passed over the peptide surface for a sufficient amount of time to observe sensorgrams that could be fitted to an appropriate binding model with confidence. An irrelevant scFv blank was subtracted from the main dataset to reduce the impact of any buffer artefacts or non-specific binding effects. An appropriate binding model was then fitted to the data.
Regarding B1, the “ka” value came out at 329000 M⁻¹ s⁻¹ and the “kd” value came to 0.000129 s⁻¹.
B2: the “ka” value was found to be 203000 M⁻¹ s⁻¹ and the “kd” value came out at 0.000165 s⁻¹.
Turning to B3, the “ka” value is 136000 M⁻¹ s⁻¹ and the “kd” value is 5.73e-05 s⁻¹.
With B4, the “ka” value was 141000 M⁻¹ s⁻¹ and the “kd” value amounted to 0.000103 s⁻¹.
Turning to B5, the “ka” value is 210000 M⁻¹ s⁻¹ and the “kd” value amounted to 0.000188 s⁻¹.
For B6 the same measures were 197000 M⁻¹ s⁻¹ and 0.000138 s⁻¹.
